# According to the supplement of paper PMC5998384:
# Columns and labels:
# [1] = tested on: HeLa Kyoto; experiment: melting temperature (median over replicates), in situ; higher = more thermally stable
# [2] = tested on: HeLa Kyoto; experiment: thermal stability score vs G1/S (z-score of summed log2 fold changes over temperatures); higher = more thermally stable than in G1/S
# [3] = cell cycle stage: early G1 (4.5 h after nocodazole release)
# 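Throughout, for melting temperature (median over replicates), in situ: HeLa Kyoto cells synchronized by double thymidine or nocodazole block, proteins quantified by TMT10plex mass spectrometry, three independent biological replicates.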
# 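Throughout, for thermal stability score vs G1/S (z-score of summed log2 fold changes over temperatures): synchronized HeLa Kyoto cells, proteins quantified by TMT10plex mass spectrometry, three biological replicates, mitosis taken 0.5 h after nocodazole release, G1/S directly after double thymidine block.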
Sequence,melting temperature ([1]; cell cycle stage: G1/S),"thermal stability score [2, 3]",thermal stability score ([2]; cell cycle stage: mitosis),melting temperature ([1]; cell cycle stage: mitosis)
MAAPAGGGGSAVSVLAPNGRRHTVKVTPSTVLLQVLEDTCRRQDFNPCEYDLKFQRSVLDLSLQWRFANLPNNAKLEMVPASRSREGPENMVRIALQLDDGSRLQDSFCSGQTLWELLSHFPQIRECLQHPGGATPVCVYTRDEVTGEAALRGTTLQSLGLTGGSATIRFVMKCYDPVGKTPGSLGSSASAGQAAASAPLPLESGELSRGDLSRPEDADTSGPCCEHTQEKQSTRAPAAAPFVPFSGGGQRLGGPPGPTRPLTSSSAKLPKSLSSPGGPSKPKKSKSGQDPQQEQEQERERDPQQEQERERPVDREPVDREPVVCHPDLEERLQAWPAELPDEFFELTVDDVRRRLAQLKSERKRLEEAPLVTKAFREAQIKEKLERYPKVALRVLFPDRYVLQGFFRPSETVGDLRDFVRSHLGNPELSFYLFITPPKTVLDDHTQTLFQANLFPAALVHLGAEEPAGVYLEPGLLEHAISPSAADVLVARYMSRAAGSPSPLPAPDPAPKSEPAAEEGALVPPEPIPGTAQPVKRSLGKVPKWLKLPASKR [ASPSCR1],52.2 °C,-0.292,-0.934,
MAAVVAKREGPPFISEAAVRGNAAVLDYCRTSVSALSGATAGILGLTGLYGFIFYLLASVLLSLLLILKAGRRWNKYFKSRRPLFTGGLIGGLFTYVLFWTFLYGMVHVY [EMC6],54.6 °C,1.03,-0.846,54.1 °C
MALRELKVCLLGDTGVGKSSIVWRFVEDSFDPNINPTIGASFMTKTVQYQNELHKFLIWDTAGQERFRALAPMYYRGSAAAIIVYDITKEETFSTLKNWVKELRQHGPPNIVVAIAGNKCDLIDVREVMERDAKDYADSIHAIFVETSAKNAININELFIEISRRIPSTDANLPSGGKGFKLRRQPSEPKRSCC [RAB22A],54.8 °C,1.25,0.617,53.7 °C
MARAAPLLAALTALLAAAAAGGDAPPGKIAVVGAGIGGSAVAHFLQQHFGPRVQIDVYEKGTVGGRLATISVNKQHYESGAASFHSLSLHMQDFVKLLGLRHRREVVGRSAIFGGEHFMLEETDWYLLNLFRLWWHYGISFLRLQMWVEEVMEKFMRIYKYQAHGYAFSGVEELLYSLGESTFVNMTQHSVAESLLQVGVTQRFIDDVVSAVLRASYGQSAAMPAFAGAMSLAGAQGSLWSVEGGNKLVCSGLLKLTKANVIHATVTSVTLHSTEGKALYQVAYENEVGNSSDFYDIVVIATPLHLDNSSSNLTFAGFHPPIDDVQGSFQPTVVSLVHGYLNSSYFGFPDPKLFPFANILTTDFPSFFCTLDNICPVNISASFRRKQPQEAAVWRVQSPKPLFRTQLKTLFRSYYSVQTAEWQAHPLYGSRPTLPRFALHDQLFYLNALEWAASSVEVMAVAAKNVALLAYNRWYQDLDKIDQKDLMHKVKTEL [PCYOX1L],56.6 °C,0.689,1.38,56.2 °C
MATRRLTDAFLLLRNNSIQNRQLLAEQVSSHITSSPLHSRSIAAELDELADDRMALVSGISLDPEAAIGVTKRPPPKWVDGVDEIQYDVGRIKQKMKELASLHDKHLNRPTLDDSSEEEHAIEITTQEITQLFHRCQRAVQALPSRARACSEQEGRLLGNVVASLAQALQELSTSFRHAQSGYLKRMKNREERSQHFFDTSVPLMDDGDDNTLYHRGFTEDQLVLVEQNTLMVEEREREIRQIVQSISDLNEIFRDLGAMIVEQGTVLDRIDYNVEQSCIKTEDGLKQLHKAEQYQKKNRKMLVILILFVIIIVLIVVLVGVKSR [STX16],51 °C,-1.14,-0.879,49.8 °C
MAYQLYRNTTLGNSLQESLDELIQSQQITPQLALQVLLQFDKAINAALAQRVRNRVNFRGSLNTYRFCDNVWTFVLNDVEFREVTELIKVDKVKIVACDGKNTGSNTTE [GTF2A2],58.6 °C,0.419,0.557,53.4 °C
